Test results as given in CN1737011A (SHANGHAI MEI EN BIO TECH CO LT, dated 2006).

Target: HLA-DR10抗原 (on live Raji cells, Burkitt's lymphoma, ATCC CCL-86) (human)
Test: radioimmunoassay with 131I-labelled antibody (5-110 ng/ml) on 10^6 live Raji cells, Scatchard plot, Ka = -(slope/n), n = 2

Ka: 3.36e+08 M⁻¹
B1: 抗HLA-DR10的特异性嵌合单克隆抗体 (131I标记, 131I-HLA-DR10) (antibody, V domains shown)
VH: QVQLKESGPGLVAPSQSLSITCTISGFSLTSYGVHWVRQPPGKGLEWLVVIWSDGSTTYNSALKSRLSISKDNSKSQVFLKMNSLQTDDTAIYYCASHYGSTLAFASWGHGTLVTVSA
VL: DIQMTQSPASLSASVGETVTIICRASVNIYSYLAWYQQKQGKSPQLLVYNAKILAEGVPSRFSGSGSGTQFSLKINSLQPEDFGSYYCQHHYGTFTFGSGTKLEIK
modifications: 131I label by the chloramine-T method; labelled residues not stated
notes: Mouse/human chimeric IgG1 kappa made in NS0-clym cells (CCTCC C200405); also called HLA-DR10单抗; chLym抗体; not shown: human immunoglobulin gamma-1 heavy chain constant region (from plasmid pSK-γ1); human immunoglobulin kappa light chain constant region (from plasmid pSK-κ)
